Experimental data from article PMC6821020, “Arabidopsis thaliana alternative dehydrogenases: a potential therapy for mitochondrial complex I deficiency? Perspectives and pitfalls” (Orphanet Journal of Rare Diseases, 2019).

Substrate: NC(=O)C1=CN([C@@H]2O[C@H](COP(=O)(O)OP(=O)(O)OC[C@H]3O[C@@H](n4cnc5c(N)ncnc54)[C@H](O)[C@@H]3O)[C@@H](O)[C@H]2O)C=CC1
Assay: cells, lysate or membranes
Type: biochemical, Arabidopsis thaliana
Settings: rotenone-resistant activity in AtNDA2-transfected control fibroblasts, DCQ 50 μM, rotenone 8 μM, KCN 650 μM, 10 mM KH2PO4 pH 7.2, BSA, 37 °C

B1: AtNDA2 (Arabidopsis thaliana) (protein)
chain: SPAKIPNDVDRSQYSGLPPTREGEKPRVVVLGSGWAGCRLMKGIDTNLYDVVCVSPRNHMVFTPLLASTCVGTLEFRSVAEPISRIQPAISREPGSFFFLANCSRLDADAHEVHCETLTDGLNTLKPWKFKIAYDKLVIASGAEASTFGIHGVMENAIFLREVHHAQEIRRKLLLNLMLSDTPGISKEEKRRLLHCVVVGGGPTGVEFSGELSDFIMKDVRQRYAHVKDDIHVTLIEARDILSSFDDRLRRYAIKQLNKSGVRFVRGIVKDVQSQKLILDDGTEVPYGLLVWSTGVGPSPFVRSLGLPKDPTGRIGIDEWMRVPSVQDVFAIGDCSGYLETTGKPTLPALAQVAEREGKYLANLLNAIGKGNGGRANSAKEIELGVPFVYKHLGSMATIGRYKALVDLRESKDAKGISMTGFVSWFIWRSAYLTRVISWRNRFYVAINWFTTFVFGRDISRI
notes: lentiviral expression in human control fibroblasts (NHDF); permeabilised cells
B1 was tested, and the Km was 9.7 ± 3.3 µM.
